Source: patent publication US10738090B2, “Engineered microcompartment protein and related methods and systems of engineering bacterial systems for non-native protein expression and purification” (priority 2017, dated 2020)
No end group written: not given here.

Assays:
pathogens = conditions: cited from earlier work
E. coli BL21(DE3) cells = format: cell-based; conditions: for concentration showing significant anti-bacterial activity: BL21(DE3) E. coli
Protocol: Growth inhibition activity can be tested against E. coli BL21(DE3) cells. Overnight cultures of cells were diluted to 200 μL of an initial OD600 of 0.05-0.1 in LB medium. Diluted cultures were grown at 37° C., 1000 rpm in a PHMP-4 Microplate Shaker (Grant Instruments, Cambridge, England). Protein was added to the culture at an OD600 of 0.1-0.2. Growth measured by OD600 was monitored over time and were conducted in triplicate. TEV-digested material contained HB-Enc fusion protein (0.5 mg/mL) that was incubated with TEV protease (0.5 U/mL) overnight for 17 h at 4° C.

TEV protease = molecular target: T1, TEV protease (Tobacco etch virus, UniProt P04517); format: biochemical; conditions: for extent of TEV protease digestion / release of HBCM2 peptide: exogenous TEV protease, overnight at 4° C., G4T linker; for release of HB peptide by TEV protease: GT linker instead of G4T linker between TEV site and N-terminus of Enc, SDS-PAGE
T1 construct: Tobacco etch virus protease (TEV protease)
Protocol: All purified constructs were digested by addition of exogenous TEV protease, followed by overnight incubation at 4° C. Products were resolved on a 16.5% Tris-Tricine gel (Bio-Rad).

[1] = Proteolysis of HB fusion constructs in C43(DE3) cell lysate (SDS-PAGE, anti-His Western blot); parameters: species or system E. coli
Protocol: In particular, in order to perform the testing, all DNA plasmids were transformed and expressed in C43(DE3) cells as described in Example 12, except that cells were grown in 25 mL of LB medium in 150-mL flasks. IPTG induction was conducted overnight for 17 h at 18° C. to enhance soluble protein expression. Cells were harvested and lysed also as described in Example 12.
To test for proteolysis in cell lysate, cells expressing the HB-Enc constructs from 25 mL of culture were harvested and resuspended in phosphate buffer (50 mM sodium phosphate pH 8.0, 500 mM NaCl) and 10 U/mL of DNaseI. Cells were lysed via a French Pressure cell at 14,000 psi and then centrifuged at 12,000 g, 4° C. for 25 min. The supernatant (soluble) fraction was collected and incubated at 4° C. overnight. Samples for SDS-PAGE analysis were collected immediately after lysis and after overnight incubation.
As controls, samples after BPER-II lysis were also prepared. Samples were resolved on an any-kDa SDS-PAGE gel (Bio-Rad) and stained with Coomassie blue. For Western blot analysis, samples were resolved on an any-kDa and blotted to a PVDF membrane using a Transblot Turbo System (Bio-Rad) at 2.5 A for 7 min. Samples were probed using a mouse anti-His-tag primary antibody and a rabbit anti-Mouse-HRP conjugated secondary antibody (both from Bio-Rad). HRP was detected on the membrane using chemiluminescence.

[2] = French press lysis without BPER-II, then overnight incubation at 4° C.
[3] = immediately after French press lysis

GNNRPVYIPQPRPPHPRI [native Ap peptide, Apidaecin Ia, reference compound]
bactericidal activity (pathogens): high bactericidal activity
concentration showing significant anti-bacterial activity (E. coli BL21(DE3) cells; chemically synthesized peptide): ≥ 100 µg/mL

MKWKSFIKKLTKAAKKVVTTAKKPLIVENLYFQ [M-HBCM2-TEV]
concentration showing significant anti-bacterial activity (E. coli BL21(DE3) cells; chemically synthesized peptide): 2 µg/mL
MIC (E. coli BL21(DE3) cells; chemically synthesized peptide, E. coli BL21(DE3), FIG. 31 Panel B): < 5 µg/mL

Cecropin PR-39
bactericidal activity (pathogens): high bactericidal activity

B1: HB-EncK71^TEV (protein)
chain: MKWKSFIKKLTKAAKKVVTTAKKPLIVENLYFQGGGGGTEFLKRSFAPLTEKQWQEIDNRAREIFKTQLYGRKFVDVEGPYGWEYAAHPLGEVEVLSDENEVVKWGLRKGGENLYFQGGGSLPLIELRATFTLDLWELDNLERGKPNVDLSSLEETVRKVAEFEDEVIFRGCEKSGVKGLLSFEERKIECGSTPKDLLEAIVRALSIFSKDGIEGPYTLVINTDRWINFLKEEAGHYPLEKRVEECLRGGKIITTPRIEDALVVSERGGDFKLILGQDLSIGYEDREKDAVRLFITETFTFQVVNPEALILLK
extent of TEV protease digestion / release of HBCM2 peptide (TEV protease): apparent complete digestion
proteolysis in cell lysate [1, 2]: completely proteolyzed
proteolysis in cell lysate [1, 3]: significantly degraded

B2: HB-EncV57^TEVK138^TEV-His: HB-Enc fusion with TEV site after V57 plus TEV-His insertion after K138; cage forming (protein)
chain: MKWKSFIKKLTKAAKKVVTTAKKPLIVENLYFQGGGGGTEFLKRSFAPLTEKQWQEIDNRAREIFKTQLYGRKFVDVEGPYGWEYAAHPLGEVEVGGENLYFQGGGLSDENEVVKWGLRKSLPLIELRATFTLDLWELDNLERGKPNVDLSSLEETVRKVAEFEDEVIFRGCEKSGVKGLLSFEERKGGGGGENLYFQGHHHHHHGGGGGIECGSTPKDLLEAIVRALSIFSKDGIEGPYTLVINTDRWINFLKEEAGHYPLEKRVEECLRGGKIITTPRIEDALVVSERGGDFKLILGQDLSIGYEDREKDAVRLFITETFTFQVVNPEALILLK
proteolysis in cell lysate [1, 2]: resistant to proteolysis

B3: HB-EncV57^TEVK138^TEV-His with the shorter GT linker: HB-EncV57^TEVK138^TEV-His with a GT linker instead of the G4T linker (protein)
chain: MKWKSFIKKLTKAAKKVVTTAKKPLIVENLYFQGGTEFLKRSFAPLTEKQWQEIDNRAREIFKTQLYGRKFVDVEGPYGWEYAAHPLGEVEVGGENLYFQGGGLSDENEVVKWGLRKSLPLIELRATFTLDLWELDNLERGKPNVDLSSLEETVRKVAEFEDEVIFRGCEKSGVKGLLSFEERKGGGGGENLYFQGHHHHHHGGGGGIECGSTPKDLLEAIVRALSIFSKDGIEGPYTLVINTDRWINFLKEEAGHYPLEKRVEECLRGGKIITTPRIEDALVVSERGGDFKLILGQDLSIGYEDREKDAVRLFITETFTFQVVNPEALILLK
release of HB peptide by TEV protease (TEV protease): did not result in detectable release of HB peptide

B4: HB-EncD60^TEVK138^TEV-His: HB-Enc fusion with TEV site after D60 plus TEV-His insertion after K138; cage forming (protein)
chain: MKWKSFIKKLTKAAKKVVTTAKKPLIVENLYFQGGGGGTEFLKRSFAPLTEKQWQEIDNRAREIFKTQLYGRKFVDVEGPYGWEYAAHPLGEVEVLSDGGENLYFQGGGENEVVKWGLRKSLPLIELRATFTLDLWELDNLERGKPNVDLSSLEETVRKVAEFEDEVIFRGCEKSGVKGLLSFEERKGGGGGENLYFQGHHHHHHGGGGGIECGSTPKDLLEAIVRALSIFSKDGIEGPYTLVINTDRWINFLKEEAGHYPLEKRVEECLRGGKIITTPRIEDALVVSERGGDFKLILGQDLSIGYEDREKDAVRLFITETFTFQVVNPEALILLK
proteolysis in cell lysate [1, 2]: resistant to proteolysis

B5: HB-EncK138^TEV-His: HBCM2, TEV site, G4T-linker fused to N-terminus of Enc; TEV site and His6-tag after K138; cage forming (protein)
chain: MKWKSFIKKLTKAAKKVVTTAKKPLIVENLYFQGGGGGTEFLKRSFAPLTEKQWQEIDNRAREIFKTQLYGRKFVDVEGPYGWEYAAHPLGEVEVLSDENEVVKWGLRKSLPLIELRATFTLDLWELDNLERGKPNVDLSSLEETVRKVAEFEDEVIFRGCEKSGVKGLLSFEERKGGGGGENLYFQGHHHHHHGGGGGIECGSTPKDLLEAIVRALSIFSKDGIEGPYTLVINTDRWINFLKEEAGHYPLEKRVEECLRGGKIITTPRIEDALVVSERGGDFKLILGQDLSIGYEDREKDAVRLFITETFTFQVVNPEALILLK
proteolysis in cell lysate [1, 2]: resistant to proteolysis

B6: HB-EncD60^TEVK138^TEV-His with the shorter GT linker: HB-EncD60^TEVK138^TEV-His with a GT linker instead of the G4T linker (protein)
chain: MKWKSFIKKLTKAAKKVVTTAKKPLIVENLYFQGGTEFLKRSFAPLTEKQWQEIDNRAREIFKTQLYGRKFVDVEGPYGWEYAAHPLGEVEVLSDGGENLYFQGGGENEVVKWGLRKSLPLIELRATFTLDLWELDNLERGKPNVDLSSLEETVRKVAEFEDEVIFRGCEKSGVKGLLSFEERKGGGGGENLYFQGHHHHHHGGGGGIECGSTPKDLLEAIVRALSIFSKDGIEGPYTLVINTDRWINFLKEEAGHYPLEKRVEECLRGGKIITTPRIEDALVVSERGGDFKLILGQDLSIGYEDREKDAVRLFITETFTFQVVNPEALILLK
release of HB peptide by TEV protease (TEV protease): did not result in detectable release of HB peptide

B7: TEV protease: Tobacco etch virus protease, recognition sequence ENLYFQ/G; negative control alone (protein)
chain: GESLFKGPRDYNPISSTICHLTNESDGHTTSLYGIGFGPFIITNKHLFRRNNGTLLVQSLHGVFKVKNTTTLQQHLIDGRDMIIIRMPKDFPPFPQKLKFREPQREERICLVTTNFQTKSMSSMVSDTSCTFPSSDGIFWKHWIQTKDGQCGSPLVSTRDGFIVGIHSASNFTNTNNYFTSVPKNFMELLTNQEAQQWVSGWRLNADSVLWGGHKVFMSKPEEPFQPVKEATQLMNELVYSQ
anti-bacterial / growth inhibition activity (E. coli BL21(DE3) cells; E. coli BL21(DE3), concentration not given): no growth inhibition

B8: HB-EncK138^TEV-His with the shorter GT linker: HB-EncK138^TEV-His with a GT linker between TEV site and N-terminus of Enc instead of G4T (protein)
chain: MKWKSFIKKLTKAAKKVVTTAKKPLIVENLYFQGGTEFLKRSFAPLTEKQWQEIDNRAREIFKTQLYGRKFVDVEGPYGWEYAAHPLGEVEVLSDENEVVKWGLRKSLPLIELRATFTLDLWELDNLERGKPNVDLSSLEETVRKVAEFEDEVIFRGCEKSGVKGLLSFEERKGGGGGENLYFQGHHHHHHGGGGGIECGSTPKDLLEAIVRALSIFSKDGIEGPYTLVINTDRWINFLKEEAGHYPLEKRVEECLRGGKIITTPRIEDALVVSERGGDFKLILGQDLSIGYEDREKDAVRLFITETFTFQVVNPEALILLK
release of HB peptide by TEV protease (TEV protease): did not result in detectable release of HB peptide

B9: HB-EncK71^TEVK138^TEV-His: HBCM2 fused to N-terminus of T. maritima encapsulin; TEV sites after K71 and K138, His-tag; non-cage forming (protein)
chain: MKWKSFIKKLTKAAKKVVTTAKKPLIVENLYFQGGGGGTEFLKRSFAPLTEKQWQEIDNRAREIFKTQLYGRKFVDVEGPYGWEYAAHPLGEVEVLSDENEVVKWGLRKGGENLYFQGGGSLPLIELRATFTLDLWELDNLERGKPNVDLSSLEETVRKVAEFEDEVIFRGCEKSGVKGLLSFEERKGGGGGENLYFQGHHHHHHGGGGGIECGSTPKDLLEAIVRALSIFSKDGIEGPYTLVINTDRWINFLKEEAGHYPLEKRVEECLRGGKIITTPRIEDALVVSERGGDFKLILGQDLSIGYEDREKDAVRLFITETFTFQVVNPEALILLK
extent of TEV protease digestion / release of HBCM2 peptide (TEV protease): apparent complete digestion
truncated products on expression (proteolysis) ([1]; C43(DE3) cells, anti-His-tag Western blot): some truncated products
proteolysis in cell lysate [1, 2]: completely proteolyzed
proteolysis in cell lysate [1, 3]: significantly degraded
growth inhibition of E. coli (E. coli BL21(DE3) cells; undigested fusion protein at 40 μg/mL): did not inhibit the growth
